Assay [1] addresses HLA-B*3501 (human). Conditions: remark: other sources report otherwise.
Assay [2] deals with HLA-B*3501 (human). Conditions: remark: other sources report otherwise. This is another data set of the same source.

Bounds are passed on as bounds.

B1: MAGE-A3 peptide 168-176 … (peptide)
peptide: EVDPIGHLY
As to B1, the RA (relative affinity) with HLA-B*3501 (human) [1] worked out at 2.3. In the assay with HLA-B*3501 (human) [2], the Stability (half-life of the peptide on HLA-B*35) is more than 6 h.

The values above are taken from patent US20060122119A1, “Peptides for use in antitumor immunotherapy” (Institut Nat'l De La Sante Et De La Recherche Med., priority 2002, published 2006).
